According to patent US20110263451A1, “BIOLOGICAL MARKERS PREDICTIVE OF RHEUMATOID ARTHRITIS RESPONSE TO LYMPHOTOXIN ANTAGONISTS” (GENENTECH, INC, priority 2008, published 2011):

Columns and labels:
[1] = system: solLTαβ; test: solLTαβ levels in serum of EAE mice (murine LTαβ ECLA); assay type: in vivo, mouse (SJL/J); conditions: 6 mg/kg s.c. three times a week, FIG. 3
Procedure: Soluble mouse LTαβ was measured using streptavidin coated 96-Well Microtiter plates (Meso Scale Discovery). Wells were then blocked with 150 uL of PBS containing 5% bovine serum albumin for 1-2 hours. Twenty-five uL per well of 1 μg/ml murine LTβR-Fc-biotin (R&D Systems) diluted in PBS/0.05% Tween® was then incubated with the blocked plate for 30 minutes. The wells were washed 6× with PBS containing 0.05% Tween®-20 (PBS/Tween®) and a titration curve of recombinant mouse LTα1β2 (R&D Systems), controls and unknown test samples diluted in high salt assay diluent (PBS, 0.5% BSA, 0.05% Tween® 20, 10 ppm Proclin, 5 mM EDTA, 0.2% BGG, 0.25% CHAPS+3.5 mM NaCl pH 7.4) were added at 25 μl/well and incubated for 2 hours. […] The plate was washed with wash buffer 6× and 150 μl/well of Read Buffer T (Meso Scale Discovery) diluted 1:2 in H20 was added to the plate. The plate was immediately read on an MA6000 SECTOR™ Imager (Meso Scale Discovery). […]
Female SJL/J mice were immunized intradermally at the base of the tail with 200 μl of emulsion containing 150 μg of peptide PLP 139-151 in 100 μl of PBS and 100 μl of CFA. […] Animals were evaluated daily for clinical signs using the same grading system as for the transgenic mice.

[2] = system: solLTαβ; test: solLTαβ levels in serum of CIA mice (murine LTαβ ECLA); assay type: in vivo, mouse (DBA-1J); conditions: 6 mg/kg s.c. three times weekly, treated for 11 days, FIG. 4A
Procedure: Soluble mouse LTαβ was measured using streptavidin coated 96-Well Microtiter plates (Meso Scale Discovery). Wells were then blocked with 150 uL of PBS containing 5% bovine serum albumin for 1-2 hours. Twenty-five uL per well of 1 μg/ml murine LTβR-Fc-biotin (R&D Systems) diluted in PBS/0.05% Tween® was then incubated with the blocked plate for 30 minutes. The wells were washed 6× with PBS containing 0.05% Tween®-20 (PBS/Tween®) and a titration curve of recombinant mouse LTα1β2 (R&D Systems), controls and unknown test samples diluted in high salt assay diluent (PBS, 0.5% BSA, 0.05% Tween® 20, 10 ppm Proclin, 5 mM EDTA, 0.2% BGG, 0.25% CHAPS+3.5 mM NaCl pH 7.4) were added at 25 μl/well and incubated for 2 hours. The wells were washed 6× with PBS/Tween® and an anti-LTα monoclonal antibody (N3EV) (Genentech) labeled with SULFO-TAG® NHS (Meso Scale Discovery) was diluted to 3 ug/ml in assay diluent and added to the wells at 25 μl/well for 1 hour. The plate was washed with wash buffer 6× and 150 μl/well of Read Buffer T (Meso Scale Discovery) diluted 1:2 in H20 was added to the plate. The plate was immediately read on an MA6000 SECTOR™ Imager (Meso Scale Discovery). A weighted 4-parameter fit curve was plotted using XLFit (Guildford, UK) from the resulting standard curve values and unknown concentrations were extrapolated. […]

B1: muLTβR-Fc: recombinant murine LTβ receptor conjugated to an immunoglobulin Fc region (murine IgG2a Fc) (protein)
chain: QLVPPYRIENQTCWDQDKEYYEPMHDVCCSRCPPGEFVFAVCSRSQDTVCKTCPHNSYNEHWNHLSTCQLCRPCDIVLGFEEVAPCTSDRKAECRCQPGMSCVYLDNECVHCEEERLVLCQPGTEAEVTDEIMDTDVNCVPCKPGHFQNTSSPRARCQPHTRCEIQGLVEAAPGTSYSDTICKNPPEPGAML
modifications: left off: a dimerising Fc or GST
- solLTαβ levels in serum [1]: Elevated
- solLTαβ levels in serum [2]: Elevated
